The values that follow come from paper PMC3093372, “A Large and Intact Viral Particle Penetrates the Endoplasmic Reticulum Membrane to Reach the Cytosol” (PLoS Pathogens, 2011).

By stoichiometry N is commonly meant a count of units in the complex or per binding partner.

To fix the notation:
B1: SV40 VP1 coat protein (natural protein, simian virus 40 (SV40), UniProt P03087 1-362, looked up)
chain: MAPTKRKGSCPGAAPKKPKEPVQVPKLVIKGGIEVLGVKTGVDSFTEVECFLNPQMGNPDEHQKGLSKSLAAEKQFTDDSPDKEQLPCYSVARIPLPNINEDLTCGNILMWEAVTVKTEVIGVTAMLNLHSGTQKTHENGAGKPIQGSNFHFFAVGGEPLELQGVLANYRTKYPAQTVTPKNATVDSQQMNTDHKAVLDKDNAYPVECWVPDPSKNENTRYFGTYTGGENVPPVLHITNTATTVLLDEQGVGPLCKADSLYVSAVDICGLFTNTSGTQQWKGLPRYFKITLRKRSVKNPYPISFLLSDLINRRTQRVDGQPMIGMSSQVEEVRVYEDTEELPGDPDMIRYIDEFGQTTTRMQ
notes: major capsid protein VP1 of simian virus 40, native protein of the virus (genome from pUCSV40); no residues stated; Stood in the assays as part of viral particles or of VP1 pentamers; the introduction says the capsid is 72 pentamers of VP1; source: SV40 virions purified from SV40-infected or viral genome-transfected CV-1 cells (OptiPrep gradient); input virus in S1 and S2 fractions and whole cell …

Series [1] deals with the molecule itself. Description: sucrose gradient sedimentation; S1 of CV-1 cells transfected with the SV40 genome for 48 hrs; continuous 20-40% sucrose gradient, 49,500 rpm, 50 min, 4°C; fractions blotted for VP1.
In the series “SV40 VP1 coat protein” the target is B1. Description: co-IP; S2 (Triton X-100 extract of P1, ER-localized virus) from CV-1 cells infected with SV40 for 12 hrs; precipitated with VP1 monoclonal antibodies (CC10 and BC11), Protein G-Dynabeads, wash 50 mM Hepes pH 7.5, 500 mM NaCl, 1% Triton X-100; blot with VP2/VP3 antibody. The note with it: partners not purified.

In the case of B1, the “stoichiometry N” value in series [1] turned out to be 5.

B2: SV40 VP2 (natural protein)
chain: MGAALTLLGDLIATVSEAAAATGFSVAEIAAGEAAAAIEVQLASVATVEGLTTSEAIAAIGLIPQAYAVISGAPAAIAGFAALLQTVTGVSAVAQVGYRFFSDWDHKVSTVGLYQQPGMAVDLYRPDDYYDILFPGVQTFVHSVQYLDPRHWGPTLFNAISQAFWRVIQNDIPRLTSQELERRTQRYLRDSLARFLEETTWTVINAPVNWYNSLQDYYSTLSPIRPTMVRQVANREGLQISFGHTYDNIDEADSIQQVTERWEAQSQSPNVQSGEFIEKFEAPGGANQRTAPQWMLPLLLGLYGSVTSALKAYEDGPNKKKRKLSRGSSQKTKGTSASAKARHKRRNRSSRS
notes: minor capsid protein VP2 of simian virus 40, native protein of the virus; contains all of VP3 plus an additional N-terminal extension; Detected with a VP2/VP3 antibody that sees both proteins; source: SV40 virions purified from SV40-infected or viral genome-transfected CV-1 cells (OptiPrep gradient); input virus in S1 and S2 fractions of infected CV-1 cells
As to B2, the binding result with SV40 VP1 coat protein is given as “binds”.
